# Target: prostate specific membrane antigen (PSMA) (UniProt Q04609 1-750, limits assumed)
# Test: cell-based or functional assay
# Chain of prostate specific membrane antigen (PSMA) (Q04609 whole entry, form in doubt): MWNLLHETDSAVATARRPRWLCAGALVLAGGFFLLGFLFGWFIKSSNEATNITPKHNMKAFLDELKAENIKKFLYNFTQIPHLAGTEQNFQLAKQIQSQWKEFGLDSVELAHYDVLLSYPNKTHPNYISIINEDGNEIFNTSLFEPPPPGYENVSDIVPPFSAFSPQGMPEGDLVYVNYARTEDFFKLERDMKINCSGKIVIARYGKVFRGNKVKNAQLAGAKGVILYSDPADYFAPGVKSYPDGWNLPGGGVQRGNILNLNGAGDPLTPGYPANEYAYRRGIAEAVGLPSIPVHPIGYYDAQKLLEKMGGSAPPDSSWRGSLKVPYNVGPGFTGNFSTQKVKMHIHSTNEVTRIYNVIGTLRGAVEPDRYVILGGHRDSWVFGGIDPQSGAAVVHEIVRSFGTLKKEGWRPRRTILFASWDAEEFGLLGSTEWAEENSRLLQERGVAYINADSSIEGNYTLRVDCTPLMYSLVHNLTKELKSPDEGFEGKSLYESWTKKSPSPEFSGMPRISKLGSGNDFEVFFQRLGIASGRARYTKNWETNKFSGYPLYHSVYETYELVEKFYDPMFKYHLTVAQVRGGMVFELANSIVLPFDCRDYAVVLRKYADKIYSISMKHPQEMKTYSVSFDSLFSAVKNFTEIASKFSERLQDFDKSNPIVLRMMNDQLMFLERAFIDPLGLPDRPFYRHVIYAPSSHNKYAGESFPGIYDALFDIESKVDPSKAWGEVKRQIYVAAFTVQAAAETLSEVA
Binder,"cytotoxicity (XTT assay), PSMA expressing cells eliminated at E:T ratio 1:1","cytotoxicity (XTT assay), target cells eliminated at E:T ratio 1:4, 48 h co-culture with C4-2 cells"
"CAR28, anti-PSMA CAR with CD28 co-stimulatory domain (scFv D7) (other) MDFQVQIFSFLLISASVIMSRMAQVQLQQSGAELVEPGASVKLSCKASGYTFTYFDINWLRQRPEQGLEWIGGISPGDGNTNYNENFKGKATLTIDKSSTTAYIQLSRLTSEDSAVYFCARDGNFPYYAMDSWGQGTSVTVSSAKTTPKLGGGGSGGGGSGGGGSARVDIELTQSPLSLPVILGDQASISCRSSQSLVHSNGNTYLHWFLQKPGQSPKLLIYTVSNRFSGVPDRFSGSGSGTDFTLKISRVEAEDLGVYFCSQSTHVPTFGGGTKLEIKRSDPAEPKSPDKTHTCPPCPAPPVAGPSVFLFPPKPKDTLMIARTPEVTCVVVDVSHEDPEVKFNWYVDGVEVHNAKTKPREEQYNSTYRVVSVLTVLHQDWLNGKEYKCKVSNKALPAPIEKTISKAKGQPREPQVYTLPPSRDELTKNQVSLTCLVKGFYPSDIAVEWESNGQPENNYKTTPPVLDSDGSFFLYSKLTVDKSRWQQGNVFSCSVMHEALHNHYTQKSLSLSPGKKDPKFWVLVVVGGVLACYSLLVTVAFIIFWVRSKRSRLLHSDYMNMTPRRPGPTRKHYQAYAAARDFAAYRSLRVKFSRSADAPAYQQGQNQLYNELNLGRREEYDVLDKRRGRDPEMGGKPRRKNPQEGLYNELQKDKMAEAYSEIGMKGERRRGKGHDGLYQGLSTATKDTYDALHMQALPPR",≤ 90%,~90%
"CAR41, anti-PSMA CAR with 4-1BB co-stimulatory domain (scFv D7) (other) MDFQVQIFSFLLISASVIMSRMAQVQLQQSGAELVEPGASVKLSCKASGYTFTYFDINWLRQRPEQGLEWIGGISPGDGNTNYNENFKGKATLTIDKSSTTAYIQLSRLTSEDSAVYFCARDGNFPYYAMDSWGQGTSVTVSSAKTTPKLGGGGSGGGGSGGGGSARVDIELTQSPLSLPVILGDQASISCRSSQSLVHSNGNTYLHWFLQKPGQSPKLLIYTVSNRFSGVPDRFSGSGSGTDFTLKISRVEAEDLGVYFCSQSTHVPTFGGGTKLEIKRAAALPAEPKSPDKTHTCPPCPAPPVAGPSVFLFPPKPKDTLMIARTPEVTCVVVDVSHEDPEVKFNWYVDGVEVHNAKTKPREEQYNSTYRVVSVLTVLHQDWLNGKEYKCKVSNKALPAPIEKTISKAKGQPREPQVYTLPPSRDELTKNQVSLTCLVKGFYPSDIAVEWESNGQPENNYKTTPPVLDSDGSFFLYSKLTVDKSRWQQGNVFSCSVMHEALHNHYTQKSLSSLSPGKKIYIWAPLAGTCGVLLLSLVITLYCKRGRKKLLYIFKQPFMRPVQTTQEEDGCSCRFPEEEEGGCELLRVKFSRSADAPAYQQGQNQLYNELNLGRREEYDVLDKRRGRDPEMGGKPRRKNPQEGLYNELQKDKMAEAYSEIGMKGERRRGKGHDGLYQGLSTATKDTYDALHMQALPPR",≤ 90%,–
